Assay results: the supplement of paper PMC9170038

Key:
MS2 coat protein = experiment: apparent KD of MS2 coat protein; higher = weaker reporter binding; conditions: Eterna round: R107
Experimental: (§1)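 RNA-MaP round R107: designed RNA switches with theophylline, tryptophan, arginine or FMN aptamers are transcribed on-chip within common flanks. They are titrated with SNAP-549-labelled MS2 coat protein in RNA-MaP buffer (100 mM Tris pH 7.5, 80 mM KCl, 4 mM MgCl2), without ligand or with the indicated ligand. Median apparent KD per design.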

[1] = tested on: K4 kissing-loop RNA reporter; experiment: apparent KD of K4 kissing-loop reporter; higher = weaker reporter binding; conditions: Eterna round: R107;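 further: bound reporter read as fluorescence of individual clusters on recovered sequencing chips by microscopy, with normalized cluster intensities fitted with a binding model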
Experimental: as §1, with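 “a labelled K4 kissing-loop RNA reporter” for “SNAP-549-labelled MS2 coat protein”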

[2] = input ligand: theophylline 20 uM
[3] = input ligand: tryptophan 2.4 mM
[4] = input ligand: theophylline 2 mM

Row | Sequence | apparent KD of MS2 coat protein (MS2 coat protein; input ligand: arginine 13.2 mM) [nM] | apparent KD of MS2 coat protein (MS2 coat protein; [2]) [nM] | apparent KD of MS2 coat protein (MS2 coat protein; [3]) [nM] | apparent KD of MS2 coat protein (MS2 coat protein; input ligand: none) [nM] | apparent KD of MS2 coat protein (MS2 coat protein; [4]) [nM] | apparent KD of K4 kissing-loop reporter ([1]; input ligand: FMN 200 uM) [nM] | apparent KD of K4 kissing-loop reporter ([1]; input ligand: arginine 13.2 mM) [nM] | apparent KD of K4 kissing-loop reporter ([1]; input ligand: none) [nM] | apparent KD of K4 kissing-loop reporter [1, 2] [nM] | apparent KD of K4 kissing-loop reporter [1, 3] [nM]
1 | ACAUGAGGAUCACCCAUGUAAUGGCACGAUACCAGCUGAUCCCGUGGCCCUUGGCAGCGUCCGGUGUGGUCCGCCGGGUUGGAGC [DDDMULLIN] | 28.7 | 39.5 | 27 | – | – | – | – | – | – | –
2 | ACAUGAGGAUCACCCAUGUAGUAGUCAGAAGGAGCGUGGAAUAACACAGGUAGGUCGCUGAUGUUUGGUUAAAUGUAAUCGUGUA [#30 Same State - Arginine A] | 19.6 | 27.6 | 17.8 | 17.4 | 18.3 | – | – | – | – | –
3 | GGACUCGUCACGGCCGCCACUGCGGUGGUGUGACAUGAGGAUCACCCAUGUUGUCAUGCGGCCCUUAGGACCGGGUGUCGCGUCC [#1 Exclusion - Tryptophan B Attempt #25 (HarryS)] | 49.7 | 100 | – | – | 93.8 | – | – | – | – | –
4 | UAUACAUGAGGAUCACCCAUGUGCCAUGAUACCAGACAUGAAAAUGUCCCUUGGCAGCAUGGGAGAUGUAUAGCGGGAAACCCGA [Turany] | 22.4 | 198 | 42.6 | 38.9 | 677 | – | – | – | – | –
5 | CAUGAAGUAACUGAUACCAGUGUACACAUGAGGAUCACCCAUGUGUUGGGUUUUGUUGUACACCCUUGGCAGCAGAAUCUUUAUG [AstrosExyTheB#8] | 42.4 | 84.3 | 51.2 | – | – | – | – | – | – | –
6 | CAUGAUAAGUUGGAUACCAGCAUAUGGAACAACAUGAGGAUCACCCAUGUCAAAUGACAUUGCCCUUGGCAGCCACCUACUGUCA [theeternabot_sameState_MS2_Theo_B_5] | 21.2 | 19.1 | 17.9 | – | – | – | – | – | – | –
7 | AAAUCAGUCUGAAGGAGCGUCACAUGAGGAUCACCCAUGUACAUGAGGAUCACCCAUGUGUGACAGGUAGGUCGCAGAGGAUACC [Exclusion Arginine B GF 4] | 125 | 168 | 213 | 169 | 207 | – | – | – | – | –
8 | AGACAUGUAAGAUAAAUGACUUAUACAGAUACCAGACUGUCUAAUGUCCCUUGGCAGCUGCAUAACAUGAGGAUCACCCAUGUAA [JR_ExcTheophyA_Sub010] | 22.3 | 24.2 | 26.9 | – | – | – | – | – | – | –
9 | GGGAGGGAGGCGGCCGCCACUGAUUUUCAUAUAUAUAUAACAUGAGGAUCACCCAUGUAGAUAUGCAGGACCGGGCCUUUUUUUU [aaaI] | 21.3 | 30.1 | – | – | 19.1 | – | – | – | – | –
10 | CCUGCGUUUCUUUUCUUUCGCAGGAAUGAUACCAGUAGGGAAACCUACCCUUGGCAGCAUGGGUAACAUGAGGAUCACCCAUGUU [SSThA NP+V+V2 #5 Same Structure] | 93.2 | 392 | 343 | – | – | – | – | – | – | –
11 | CGAUAUAAGACGGCCGCCACUAUUAUGUAACAAAAUAAACAUGAGGAUCACCCAUGUACAUGGGAUAGGACCGGGUCCAAUAACG [#21 Same State - Tryptophan B] | 98.7 | 148 | – | – | 151 | – | – | – | – | –
12 | AUUUUCAUGGUCAUAUAUAUAUCUUCAGAUACCAGACUAUAUUAAGUCCCUUGGCAGCUGUUACAUGAGGAUCACCCAUGUUAUA [JR_ExcTheophyA_Sub013] | 40.1 | 65.3 | 78 | – | – | – | – | – | – | –
13 | AAUAAUCUAGGUGAUACCAGCUCAACAUGAGGAUCACCCAUGUGCUCAUGAAGAGCUGAGAGCCCUUGGCAGCACCUAGAUAAUA [(Theo1)-(Ms2)-(M)'-(T)'-(Theo2)_Design2] | 461 | 676 | 1100 | 739 | 28.5 | – | – | – | – | –
14 | AGUGGGUGUUAUGAUACCAGCGUAAUACACAACAUGAGGAUCACCCAUGUGGAGCCUCGCCGCCCUUGGCAGCAUUGGGCCCGCA [theeternabot_sameState_MS2_Theo_B_4] | 115 | 237 | 223 | – | – | – | – | – | – | –
15 | ACCUGUACGAAAAGUGCAGGACACGGAUAACGAGGACCGGUACGGCCGCCACUCGGAAUAACCUGAGGAUCACCCUGGUACCGUG [TrypAS 8 #AlternativeMS2 #Zipper #StaticStem] | 25.8 | 24 | 19 | 18.7 | 23.2 | – | – | – | – | –
16 | GCUGCCAUACGAAGGAGCGCUGCUGCGAUGUGGCGAACAUGAGGAUCACCCAUGUGGCAGCGGCAGGUAGGUCGCGUAUGGCAGC [#02 Exclusion - Arginine B] | 45.2 | 330 | 206 | 166 | 297 | – | – | – | – | –
17 | UUAAUCAUUGAUGAAAACAUUAAUGCAGAAGGAGCGUGAUAAAACACAGGUAGGUCGCUGAAGGGAACAUGAGGAUCACCCAUGU [AstrosSSArgA#16] | 27.3 | 36.5 | 30.8 | 28.1 | 33.6 | – | – | – | – | –
18 | UUCGUUUACGGAAGGAGCGACGGACAUCGGUGAUCUAUGCACAUGAGGAUCACCCAUGUACGUCAGGUAGGUCGCCGUUAAGAGU [XArg-B28] | 28.4 | 96.5 | 9.59 | 80.8 | 184 | – | – | – | – | –

Row | Sequence | apparent KD of MS2 coat protein (MS2 coat protein; input ligand: arginine 13.2 mM) [nM] | apparent KD of MS2 coat protein (MS2 coat protein; [2]) [nM] | apparent KD of MS2 coat protein (MS2 coat protein; [3]) [nM] | apparent KD of MS2 coat protein (MS2 coat protein; input ligand: none) [nM] | apparent KD of MS2 coat protein (MS2 coat protein; [4]) [nM] | apparent KD of K4 kissing-loop reporter ([1]; input ligand: FMN 200 uM) [nM] | apparent KD of K4 kissing-loop reporter ([1]; input ligand: arginine 13.2 mM) [nM] | apparent KD of K4 kissing-loop reporter ([1]; input ligand: none) [nM] | apparent KD of K4 kissing-loop reporter [1, 2] [nM] | apparent KD of K4 kissing-loop reporter [1, 3] [nM]
19 | ACAUUAGCCACGGCCGCCACUGCUUUAUGAUUAUAAGGAUUAAUGAACAUGAGGAUCACCCAUGUCAGGACCGGGUGCCUACCAU [SSTryp B #4] | 31.4 | 42.3 | – | – | 39 | – | – | – | – | –
20 | AGCUCGCGUCCUCAAGCGUCAAAGACGCGUCGAGGACCGGUACGGCCGCCACUCGACCUGAGGAUCACCCAGGUUUAAGCGAGCA [TrypAX 6 #SwitchBubble #AlternativeMS2 #MS2Late #CuTurnoff] | 12.7 | 20 | 115 | 17.8 | 18.1 | – | – | – | – | –
21 | AUGCCUAGUGGAAGGAGCGAGGGUCUUCUCAACAUGAGGAUCACCCAUGUUCUUUUAUACCCUCAGGUAGGUCGCCAUUGGGACA [Anenre] | 27.7 | 33.6 | 34.8 | 28.8 | 25.7 | – | – | – | – | –
22 | GAUAUGGAAACAUGUCAGAUCCUUACCGGUCGAGGACCGGUACGGCCGCCACUCGAAAACGAGGAACAUGAGGAUCACCCAUGUA [Ex Tryptophan A 20] | 32.7 | 50.4 | – | – | 49.5 | – | – | – | – | –
23 | AUAUCUUCCACGGCCGCCACUGAAUGGUGCCCAAGGUCGAUCGCAGACAUGAGGAUCACCCAUGUCAGGACCGGGUGGUACUACG [theeternabot_exclusion_MS2_Trp_B_23] | 16.1 | 16.5 | – | – | 15.7 | – | – | – | – | –
24 | UAGUUGUAGUCGGCCGCCACUGUGAGCAUGGUUAACAUGAGGAUCACCCAUGUCCCGUACUAUAACAGGACCGGGACGUAGUUGC [#10 Same State - Tryptophan B] | 31.1 | 79.4 | – | – | 134 | – | – | – | – | –
25 | CGCACAUGAGGAUCACCCAUGUGAGGGCGUCGAGGACCGGUACGGCCGCCACUCGCAGGACAUGAGGAUCACCCAUGUGCCGCCG [SSTA DOUBLE!!! :-D #4] | 39.8 | 131 | – | – | 145 | – | – | – | – | –
26 | AGGUGGCGCGGAAGGAGCGAGUUUGCCUAUUACAUGAGGAUCACCCAUGUGGGUAAUGGGACUCAGGUAGGUCGCCGUUGUCGCU [Same State Arginine B GF 27] | 35.6 | 91.5 | 61.5 | 47.9 | 68.8 | – | – | – | – | –
27 | ACGUAAUGCAGAAGGAGCGUCUUAUGUAUACAUGAGGAUCACCCAUGUAAUAUGUGGUUGAGACAGGUAGGUCGCUGAAGUACGA [JR_SSArginiB_Sub009] | 46.9 | 94.1 | 58.7 | 86 | 78.4 | – | – | – | – | –
28 | GCGGACAUGAGGAUCACCCAUGUAAAUCCUCGAGGACCGGUACGGCCGCCACUCGAACGAGUGGCGCGCGCGCGCGCGCGCGCGC [aAa] | 25.3 | 119 | 45.2 | 40.5 | 78.9 | – | – | – | – | –
29 | AUUAAUUUAUUUCUCAAUUUAAUUUCAGAAGGAGCGUGAUGUUUCACAGGUAGGUCGCUGUUUACAUGAGGAUCACCCAUGUUUU [JR_SSArginiA_Sub004] | 32 | 44.4 | 31.8 | 40.2 | 40.4 | – | – | – | – | –
30 | CAAGCACCAACCGAUACCAGCUUAGUAGUAUGCUCAUUAAACAUGAGGAUCACCCAUGUGAGCCCUUGGCAGCGGAUUUCCCUGC [theeternabot_exclusion_MS2_Theo_B_12] | 14.5 | 18.3 | 13.5 | – | – | – | – | – | – | –
31 | AUAACAGUGUCGGCCGCCACUAGAACACAUGAGGAUCACCCAUGUGGUGGUACCUCCUAAGACGAUAGGACCGGGACCCAUCUAC [theeternabot_exclusion_MS2_Trp_B_12] | 50.4 | 108 | – | – | 143 | – | – | – | – | –
32 | AAUAUAUAUCACGAACUGUGGUGUAUGUUGCGAGGACCGGUACGGCCGCCACUCGACCGGUGGUACAUGAGGAUCACCCAUGUUG [XTryp A #10] | 35.6 | 82 | 58.1 | 57.2 | 56.4 | – | – | – | – | –
33 | CCGGGCCCGGGAGACCGGGCCCGGACUGAAGGAGCGGGAAUAAACCCAGGUAGGUCGCAGAGAUCCACAUGAGGAUCACCCAUGU [!0.U] | 133 | 51.7 | 36.8 | 54.5 | 36.5 | – | – | – | – | –
34 | UCAAGUGAACCAUGGAAACAUUCAAUAGAUACCAGCAUUAAAACCUGCCCUUGGCAGCUAUGAACAUGAGGAUCACCCAUGUGAA [theeternabot_exclusion_MS2_Theo_A_21] | 17.3 | 23.3 | 19.2 | – | – | – | – | – | – | –
35 | UUACAUGAGGAUCACCCAUGUCAUAAUGAUACCAGAUAGUUGAUGAUCCCUUGGCAGCAUAGUACCUAGACAUGUGAGUCAUAGG [Ab] | 116 | 130 | 76.8 | – | – | – | – | – | – | –
36 | AGAUCUGUAACAGAUACCAGAGGACGAUGAUCGGACAGUGAUGUUAUCUGUCAGUCGUCGCUCCCUUGGCAGCUGUUACAGAUCA [Omei KL Theo B SS B v3] | – | – | – | – | – | 78.1 | 43.1 | 73.7 | 94.9 | 65.2
